Measured values as given in publication PMC8494329.

Molecular target: 16055 NFL trimer (native flexibly linked HIV-1 Env stabilized trimer, clade C strain 16055) (HIV-1, clade C, strain 16055)

Row | Binder | IC50 of neutralisation of the autologous 16055 pseudovirus (TZM-bl cells); the mAb on Env of the virus [μg/mL]
1 | VD20.5A4 Fab (Fab, V domains shown) VH: QVQLQESGPGLVKPSETLSLTCAVSGASISSNYWSWIRQPPGKGLEWIGRIYDPTDSTDYNPSLESRATISKDTSKNHFSLTLSSVTAADTAVYFCARGLWSGYFFWFDVWGPGVLVTVSS VL: DIQMTQSPSSLSASVGDSVTVTCRASQGIDKELSWYQQKPGKAPTLLIYAASSLQTGVSSRFSGSGSGTDYTLTISSLQPEDVATYYCLQDYATPYSFGQGTKVEIK | 0.005
2 | D11A.B5 Fab (Fab, V domains shown) VH: HLQLQESGPGLVKPSETLSLTCAVSGGSSSDYWWSWIRQPPGKGLEWIGRIDSIGNTYYNPSLRSRVTLSVDTSKNQFSLELTSVTAADTAVYYCARPYCAIGRCYESWGQGVLVTVSS VL: EVVFTQPHSVSGSPGQTVTISCTRTSGSIDSEYVQWYQQRPGSAPTIVIYRDNQRPSGVPDRFSGSIDSSSNSASLAISGLKSEDEADYYCQSSDDSYNWVFGGGTRLTVL | 3.68
